The source of these data is paper PMC5427286.

Values joined by “and” are separate entries in the source; they are usually repeats but may differ in a detail not shown here. Equal values may be shown once.

Assay [1] has as its target Hsp21 after limited proteolysis with trypsin (NTR degraded) (A. thaliana) (UniProt P31170). The assay is described as follows: native gel or EMSA; non-denaturing PAGE of purified protein; also of samples withdrawn during 1-30 min of limited trypsin proteolysis. (Mobility shift assays separate free from complexed probe on a gel.)
Assay [2] concerns the target Hsp21^V181A, non-dodecameric mutational variant of Hsp21 (A. thaliana) (UniProt P31170). The experiment in a line: SEC-SAXS; online SEC-SAXS, Superdex 200 Increase 10/300, 50 mM HEPES pH 7.5, 100 mM NaCl, 0.1% Tween 20, 0.15 ml/min; retention times 80-84 min; EOM with a pool of dimers and hexamers. A general note: Size exclusion chromatography separates by hydrodynamic size, large species first.

Chain of Hsp21 after limited proteolysis with trypsin (NTR degraded) (P31170 44-227): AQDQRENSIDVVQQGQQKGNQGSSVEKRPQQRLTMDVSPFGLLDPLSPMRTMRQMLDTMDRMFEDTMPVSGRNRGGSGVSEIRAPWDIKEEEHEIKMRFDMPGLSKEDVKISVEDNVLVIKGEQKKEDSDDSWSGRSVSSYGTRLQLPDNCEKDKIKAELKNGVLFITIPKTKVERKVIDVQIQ

For the substance “Hsp21 after limited proteolysis with trypsin (NTR degraded) (from UniProt P31170 44-227) (domain or fragment)”, the stoichiometry N in assay [1] stood at 12.
As for “Hsp21^V181A, non-dodecameric mutational variant of Hsp21 (from UniProt P31170 44-227) (natural protein)”, in assay [2], the stoichiometry N is 2 and 6.

One may read the stoichiometry N as a count of units in the complex or per binding partner.
